B1: MUC1 5TR-4 (ssDNA)
DNA: TACTGCATGCACACCACTTCAACTA
B2: 5TR-T7 (ssDNA)
DNA: CGGTCTACGGAGCCGCGTTAAACTT
B3: MUC1 5TR-3 (ssDNA)
DNA: CAAACAATCAAACAGCAGTGGGGTG
B4: MUC1 5TR-1 (ssDNA)
DNA: GAAGTGAAAATGACAGAACACAACA
B5: 5TR-T3 (ssDNA)
DNA: GGCGTACGGTAGGCGGGGTCAACTG
B6: 5TR-T5 (ssDNA)
DNA: AGTGGTGGTTTTATAAGACTGATAC
B7: 5TR-T4 (ssDNA)
DNA: GCTGGGTAAATAGATGATTCCCGGC
B8: 5TR-T6 (ssDNA)
DNA: TAGCCTTAATGCCTTTGTAAGGCGA
B9: MUC1 5TR-2 (ssDNA)
DNA: GGCTATAGCACATGGGTAAAACGAC
B10: 5TR-T1 (ssDNA)
DNA: GGGTTATATTACTCGGCCGGTGTAA

How the values were obtained:
[1] = target: 5TR MUC1 recombinant protein (human); assay: affinity chromatography, elution from the MUC1 chromatography matrix
Sequence of 5TR MUC1 recombinant protein (human) (main, as listed by the source): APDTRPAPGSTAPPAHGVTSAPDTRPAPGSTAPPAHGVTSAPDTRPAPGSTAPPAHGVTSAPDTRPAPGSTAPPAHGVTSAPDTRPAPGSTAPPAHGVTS

[2] = target: T1, MUC1 5TR (five tandem repeat recombinant MUC1, unglycosylated) (Homo sapiens, UniProt P15941 P15941:161-260); assay: SPR; 100 mM NaCl, 5 mM MgCl2, pH 7.4; printed ka and kd would give 0.69 nM; conditions: tags: 6xHis; expressed in E. coli BL21; biotin-XX labelled for SPR; about 11.8 kDa
T1 sequence (P15941 141-240, one chain of several): as the sequence (main, as listed by the source) above
Description: (§1) Biotinylated 5TR-MUC1 protein was immobilised on a BIAcore SA sensor chip (gold-streptavidin) and the system was optimised to reduce mass transport, steric hindrance, crowding, avidity and aggregation. A range of peptide concentrations, ranging from 1 μM to 1 nM were tested under different injection times and the optimum conditions used were 100 μL of 1 nM peptide in running buffer perfused over each individual channel at the rate of 25 μL/min for […]. Chip regeneration to peptide level was followed by the subsequent application of a 30 sec pulse with a solution of 10 mM NaOH. The aptamers were prepared in their selection buffers (phosphate buffer containing 100 mM NaCl, 5 mM MgCl₂, pH 7.4) at 1 μM and were applied with 30 sec injections with a 5 sec wash step with selection buffer to allow for non-specific analyte removal. The chip surfaces were regenerated (elution step) by the application of a 10 μL pulse of 1.5 M NaCl, 5 mM MgCl₂, pH 7.4.
(§2) The experimental BIAcore data were fitted to two mathematical equations for the determination of association (kₐ) and dissociation constants (kd) using non-linear regression analysis. […]
(§3) The concentration of free aptamer was assumed to be constant since an excess amount was applied to the system when compared to the amount of MUC1. […] The Kd was calculated from the following relationship: Kd is equal to kd/kₐ. […]

[3] = target: MUC1 5TR glycosylated with GalNAc (Tn antigen) (Homo sapiens, UniProt P15941 P15941:161-260); assay: pulldown; Ni-NTA magnetic beads, 100 mM NaCl, 5 mM MgCl2, pH 7.4, 37 C; values in figure only; conditions: tags: 6xHis; expressed in E. coli BL21; glycosylated in vitro with ppGalNAc-T1
Sequence of MUC1 5TR glycosylated with GalNAc (Tn antigen) (P15941 141-240, one chain of several): as the sequence (main, as listed by the source) above
Description: The Qiagen kit containing agarose magnetic beads in the proportion of 5% solution coated with nickel for His-tag purification was used for the assay. Seven tubes each containing 900 μl of start buffer (100 mM NaCl₂, 5 mM MgCl₂, pH 7.4) used to resuspend a 10 μM solution of glycosylated MUC1 5TR peptide were prepared according to manufacturer's instructions:
10 μl of the 5% beads solution was added to the solution and incubated at 4° C. for half an hour with shaking, After 30 minutes, supernatant was removed. The beads were washed by adding start buffer, allowing 1-5 min of washing time. 1 mM (500 μl) of each Glycosylated MUC1 aptamer solution in start buffer were added to the previously prepared magnetic beads containing his-tagged glycosylated MUC1. The solution containing complexed beads and aptamer solution were allowed to incubate at 37° C. for 1 hour with shaking.
After one hour the supernatant was removed and its absorbance was measured using a UV spectrometer (Eppendorf, USA) at 260 nm. The remaining Magnetic beads were washed three times with 500 μl of wash buffer (150 mM NaCl₂, 5 mM MgCl₂, pH 7.4). The supernatant was removed and 50 μl of elution buffer (1.5M NaCl₂, 5mM MgCl₂, pH 7.4) were added. The elution buffer was allowed to incubate with magnetic beads for 5 min with shaking. The magnetic beads were spun for 30 seconds at 4000 rpm to a pellet. The magnetic beads were attracted by a magnetic bar and supernatant was removed. The eluted supernatant was removed and measured using a UV spectrometer (Eppendorf, USA) 260 absorbance.

[4] = target: T1, MUC1 5TR (five tandem repeat …); assay: SPR; 100 mM NaCl, 5 mM MgCl2, pH 7.4; printed ka and kd would give 0.83 nM; conditions: tags: 6xHis; expressed in E. coli BL21; biotin-XX labelled for SPR; about 11.8 kDa
Description: as §1, §2, §3

[5] = target: T1, MUC1 5TR (five tandem repeat …); assay: SPR; 100 mM NaCl, 5 mM MgCl2, pH 7.4; printed ka 0.207e7, kd 0.00098 would give 0.47 nM; conditions: tags: 6xHis; expressed in E. coli BL21; biotin-XX labelled for SPR; about 11.8 kDa
Description: as §1, §2, §3

[6] = target: T1, MUC1 5TR (five tandem repeat …); assay: SPR; 100 mM NaCl, 5 mM MgCl2, pH 7.4; printed ka and kd would give 0.85 nM; p17 and claim list print SEQ 2 with 3' G instead of C; conditions: tags: 6xHis; expressed in E. coli BL21; biotin-XX labelled for SPR; about 11.8 kDa
Description: as §1, §2, §3

Molecule | binding result [3] | also measured
C595 anti-MUC1 monoclonal antibody | – | NaSCN concentration at elution from the affinity matrix [1]: 0.8 M
B1 | – | Kd [2]: 69 nM
B2 | binds | –
B3 | – | Kd [4]: 83 nM
B4 | – | Kd [5]: 47.3 nM
B5 | binds | –
B6 | binds | –
B7 | binds | –
B8 | binds | –
B9 | – | Kd [6]: 85.2 nM
B10 | binds | –
